The values below come from patent US20120288511A1 (INDIANA UNIVERSITY RESEARCH AND TECHNOLOGY, published 2012).

Holding throughout (assay): cell-based or functional assay
Assay [1] has as its target T1, GLP-1 receptor (human, UniProt P43220 24-463).
Assay [2] deals with T2, glucagon receptor (human, UniProt P47871 26-477).
Assay [3] has as its target T1, GLP-1 receptor. The source holds these as a separate data set.
Assay [4] concerns the target T2, glucagon receptor. This is another data set of the same source.
Assay [5] deals with T1, GLP-1 receptor. This is another data set of the same source.
The target in assay [6] is T2, glucagon receptor. This is another data set of the same source.
Assay [7] concerns the target T1, GLP-1 receptor. This is another data set of the same source.
The target in assay [8] is T2, glucagon receptor. The source holds these as a separate data set.
Assay [9] deals with T1, GLP-1 receptor. The source holds these as a separate data set.
Assay [10] concerns the target T2, glucagon receptor. This is another data set of the same source.
Assay [11] addresses T1, GLP-1 receptor. This is another data set of the same source.
Assay [12] has as its target T2, glucagon receptor. The source holds these as a separate data set.
Assay [13] concerns the target T1, GLP-1 receptor. The source holds these as a separate data set.
The target of assay [14] is T2, glucagon receptor. The source holds these as a separate data set.

Read-outs that look alike come from different tables or passages of the source. Non-standard residues stand in square brackets, D forms with d. No end group written: not given here. Aib = CC(C)(N)C(=O)O

T2 sequence (P47871 26-477): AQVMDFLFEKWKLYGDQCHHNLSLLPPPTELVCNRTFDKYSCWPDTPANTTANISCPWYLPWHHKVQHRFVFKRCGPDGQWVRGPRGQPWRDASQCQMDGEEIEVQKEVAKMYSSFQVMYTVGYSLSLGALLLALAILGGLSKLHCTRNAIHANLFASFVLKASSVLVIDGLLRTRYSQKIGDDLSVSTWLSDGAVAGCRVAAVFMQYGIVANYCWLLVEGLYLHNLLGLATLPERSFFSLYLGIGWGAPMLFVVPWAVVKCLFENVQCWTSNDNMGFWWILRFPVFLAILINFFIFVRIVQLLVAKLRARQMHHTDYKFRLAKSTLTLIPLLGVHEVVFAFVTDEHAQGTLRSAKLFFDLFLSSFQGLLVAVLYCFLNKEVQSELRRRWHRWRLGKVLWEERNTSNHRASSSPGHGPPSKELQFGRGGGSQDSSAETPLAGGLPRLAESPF

Take HSQGTFTSDYSKYLDEEAVRLFIEWLMNT-NH2 (not fully specified (residue 2)) [Glucagon Analog A]: the “EC50 (cAMP luciferase reporter)” value in assay [1] stood at 0.009 nM; in assay [2], 0.061 nM.

For the molecule H[Aib]QGTFTSDYSKYLDEQAAKEFIAWLMNT-NH2 [Glucagon Analog D], the figures for the “EC50 (cAMP luciferase reporter)” value in [1] and in [2] were 0.02 nM and 0.85 nM, respectively.

B1: Glucagon Analog 29 (peptide)
peptide: HSQGTFTSDKSKYLDERAAQDFVC(PEG 40 kDa)WLLDT-NH2
modifications: not fully specified (residue 10); also: Lys10 acylated, acyl group not given here
As for B1, the “EC50 (cAMP luciferase reporter)” value worked out at 0.084 nM in assay [3]; 0.085 nM in [4]; 0.084 nM in assay [5]; 0.085 nM in assay [6]; 0.084 nM in [7]; 0.085 nM in assay [8]. Moreover, the “percent in parentheses (not explained)” value in assay [3] was determined as 16%; in [4], 74%. For the same molecule, the “% Relative Activity vs native GLP-1” value in assay [7] turned out to be 43%. For the same molecule, the “% Relative Activity vs native glucagon” value in [8] turned out to be 40%.

B2: Glucagon Analog 20 (peptide)
peptide: HSQGTFTSDYSKYLDEKRAKEFVQWLMNT-NH2
modifications: also: DPP-IV-protecting residue at position 1 or 2: D-Ser, Aib or Dmia, salt bridge Lys17/Glu21 plus salt bridge 16/20 or α,α-disubstituted residue at 16
As for B2, the “EC50 (cAMP luciferase reporter)” value in [9] was 0.284 nM; in [10] it was 0.054 nM; in assay [3], 0.284 nM; in assay [4], 0.054 nM.

As for HSQKTFTEDYSKYLDSRRAQDFVQWLMNT (not fully specified; also: further groups not given here) [Peptide 17], the figures for the “EC50 (cAMP luciferase reporter)” value in [11] and in assay [12] were 148 nM and 862 nM, respectively.

As to H[Aib]QGTFTSDYSKYLDEEAVRLFIEWLMNT-NH2 [Glucagon Analog C], the “EC50 (cAMP luciferase reporter)” value is 0.006 nM in assay [1] and 0.17 nM in [2].

B3: Glucagon Analog 24 (peptide)
peptide: HSQGTFTSDYSKYLDEKRAKEFVC(PEG 40 kDa)WLMNT-NH2
modifications: also: DPP-IV-protecting residue at position 1 or 2 not given here, non-covalent salt bridge Lys17/Glu21
With B3, in [9], the “% Relative Activity vs native GLP-1” value is 5% and the “EC50 (cAMP luciferase reporter)” value turned out to be 1.58 nM. Moreover, in [10], the “% Relative Activity vs native glucagon” value was 7% and the “EC50 (cAMP luciferase reporter)” value came out at 0.676 nM.

Consider KAHSEGTFTSDYSKYLDSRRAQDFVQWLMNT (not fully specified; also: further groups not given here) [Peptide 12], for which the “EC50 (cAMP luciferase reporter)” value in [11] is 41.7 nM; in assay [12], 85.9 nM.

For KAHSEGTFTSDYSKYLDSRRAQDFVQWLMNT (not fully specified; also: further groups not given here) [Peptide 13], the “EC50 (cAMP luciferase reporter)” value in [11] came to 14.3 nM; in assay [12], 30.7 nM.

As for HSQGTFTSDYSKYLDKRRAEDFVQWLMNT (not fully specified; also: further groups not given here) [Peptide 3], the “EC50 (cAMP luciferase reporter)” value in assay [11] was found to be 1.15 nM; in [12], 0.34 nM.

HSQGTFTSDKSKYLDERAAQDFVQWLLDT-NH2 (not fully specified; also: position 2 Aib or D-Ser) [Glucagon Analog 51]: the “EC50 (cAMP luciferase reporter)” value in [5] was found to be 0.0039 nM; in assay [6], 0.0035 nM; in assay [13], 0.0039 nM; in assay [14], 0.0035 nM; in [7] it was 0.004 nM; in assay [8], 0.004 nM. The “% Relative Activity vs native GLP-1” value in assay [13] and in assay [7] was 949% each time. Moreover, the “% Relative Activity vs native glucagon” value in [14] and in assay [8] was 314% in each case.

In the case of HSQGTFTSDYSKYLDEQAAKEFIAWLMNT-NH2 (not fully specified (residue 2)) [Glucagon Analog B], the figures for the “EC50 (cAMP luciferase reporter)” value in assay [1] and in assay [2] were 0.014 nM and 0.072 nM, respectively.

On to HAQGTFTSDKSKYLDERAAQDFVCWLLDT (not fully specified (C-terminus)) [Glucagon Analog 59], for which, in [7], the “% Relative Activity vs native GLP-1” value came out at 484% and the “EC50 (cAMP luciferase reporter)” value was 0.019 nM. Further, in assay [8], the “% Relative Activity vs native glucagon” value came out at 490% and the “EC50 (cAMP luciferase reporter)” value amounted to 0.01 nM.
